From patent publication US20080213817A1 (published 2008)

Target: T1, mitogen-activated protein kinase/ERK kinase kinase 1 (MEKK1) (mouse, UniProt P53349 2-1493)
T1 construct: Endogenous protein co-immunoprecipitated from mouse thymocyte / T cell lysates, not a recombinant construct; also called MEK kinase 1; MAPK/ERK kinase kinase 1
T1 sequence (looked up): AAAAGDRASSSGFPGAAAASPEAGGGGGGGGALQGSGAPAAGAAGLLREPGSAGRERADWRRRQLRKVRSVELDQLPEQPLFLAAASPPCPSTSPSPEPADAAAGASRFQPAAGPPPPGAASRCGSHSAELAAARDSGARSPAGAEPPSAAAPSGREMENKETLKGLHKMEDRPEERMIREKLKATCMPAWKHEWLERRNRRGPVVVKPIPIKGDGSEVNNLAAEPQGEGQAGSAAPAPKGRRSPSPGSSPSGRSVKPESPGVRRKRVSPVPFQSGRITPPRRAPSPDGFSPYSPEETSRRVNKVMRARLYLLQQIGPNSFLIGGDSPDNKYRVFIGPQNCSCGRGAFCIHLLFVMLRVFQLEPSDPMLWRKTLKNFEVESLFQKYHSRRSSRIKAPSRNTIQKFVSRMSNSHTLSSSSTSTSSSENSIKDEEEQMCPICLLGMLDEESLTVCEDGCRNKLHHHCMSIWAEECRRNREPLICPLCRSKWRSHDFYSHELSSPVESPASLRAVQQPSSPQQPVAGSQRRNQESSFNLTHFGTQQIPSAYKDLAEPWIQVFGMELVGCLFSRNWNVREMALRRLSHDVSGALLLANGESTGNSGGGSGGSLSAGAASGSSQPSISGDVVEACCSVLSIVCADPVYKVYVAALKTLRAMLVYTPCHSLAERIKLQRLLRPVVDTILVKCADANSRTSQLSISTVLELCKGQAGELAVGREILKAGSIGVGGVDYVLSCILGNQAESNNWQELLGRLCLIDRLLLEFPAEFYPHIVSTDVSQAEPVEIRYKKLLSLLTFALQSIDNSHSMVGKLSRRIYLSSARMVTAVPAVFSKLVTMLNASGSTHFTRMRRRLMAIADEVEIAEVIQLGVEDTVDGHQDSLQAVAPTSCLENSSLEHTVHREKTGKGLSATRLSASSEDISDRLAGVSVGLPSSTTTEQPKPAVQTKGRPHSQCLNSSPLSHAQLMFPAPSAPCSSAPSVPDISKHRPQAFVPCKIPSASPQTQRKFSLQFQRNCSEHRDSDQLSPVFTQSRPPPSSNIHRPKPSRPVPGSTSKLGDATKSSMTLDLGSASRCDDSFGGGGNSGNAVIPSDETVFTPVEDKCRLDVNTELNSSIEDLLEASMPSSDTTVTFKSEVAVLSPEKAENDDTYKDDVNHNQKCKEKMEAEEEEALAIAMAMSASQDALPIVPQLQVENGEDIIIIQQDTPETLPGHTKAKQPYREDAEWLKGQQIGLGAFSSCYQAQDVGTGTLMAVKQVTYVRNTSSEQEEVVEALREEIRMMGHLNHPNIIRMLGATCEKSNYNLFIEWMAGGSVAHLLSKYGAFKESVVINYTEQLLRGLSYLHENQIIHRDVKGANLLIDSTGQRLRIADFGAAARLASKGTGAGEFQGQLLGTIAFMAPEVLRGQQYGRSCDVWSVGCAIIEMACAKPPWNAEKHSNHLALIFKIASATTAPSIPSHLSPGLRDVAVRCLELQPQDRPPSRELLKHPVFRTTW
Test: co-immunoprecipitation (summary of the results)

- binding result: binds
B1: E3 ubiquitin ligase Itch (enzyme)
chain: not shown
notes: Endogenous protein from mouse thymocytes / T cells; also called Itchy E3 ubiquitin protein ligase; AIP4
